We go through 50 molecules from patent US20150337019A1 (MANUKAMED HOLDINGS LIMITED PARTNERSHIP, published 2015).

Sequences and labels used below:
B1: TNBS-FAK-pNA (peptide)
peptide: {TNBS}-Phe-Ala-Lys-pNA
SMILES: C[C@H](NC(=O)[C@H](Cc1ccccc1)Nc1c([N+](=O)[O-])cc([N+](=O)[O-])cc1[N+](=O)[O-])C(=O)N[C@@H](CCCCN)C(=O)Nc1ccc([N+](=O)[O-])cc1

The star is where a group is joined. TNBS = trinitrobenzene sulphonic acid, N-terminal block, O=[N+]([O-])c1cc([N+](=O)[O-])c(*)c([N+](=O)[O-])c1; pNA = O=[N+]([O-])c1ccc(N*)cc1

For the first assay, the target named is T1, Cathepsin B from bovine spleen (bovine, UniProt P07688 80-332). As to the kind of experiment: cell-based or functional assay.
Take Ac-Met-Gln-Lys-OH [Ac-MQK-OH]: the “Cathepsin B inhibition test, 2 mM peptide” value (shortened to “Cathepsin B inhibition test”) was found to be 121.

With H-Met-Thr-Arg-OH [H-MTR-OH], the “Cathepsin B inhibition test” value was found to be 143.

Regarding Ac-IFVTMLR-OH [Ac-IFVTMLR-OH], the “Cathepsin B inhibition test” value worked out at 88.3.

Ac-Met-Thr-Arg-OH (also: MGO-modified, site not given here) [MGO-modified Ac-MTR-OH]: the “Cathepsin B inhibition test” value came to 119.

Turning to Ac-Cys-Asp-Arg-OH (also: MGO-modified, site not given here) [MGO-modified Ac-CDR-OH], the “Cathepsin B inhibition test” value was found to be 78.5.

For H-Met-Gln-Lys-OH [H-MQK-OH], the “Cathepsin B inhibition test” value came to 127.

As to Ac-IFVTMLR-OH (also: MGO-modified, site not given here) [MGO-modified Ac-IFVTMLR-OH], the “Cathepsin B inhibition test” value amounted to 92.6.

Take Ac-Met-Thr-Arg-OH [Ac-MTR-OH]: the “Cathepsin B inhibition test” value came out at 126.

In the case of H-Cys-Asp-Arg-OH (also: MGO-modified, site not given here) [MGO-modified H-CDR-OH], the “Cathepsin B inhibition test” value worked out at 96.

On to Ac-Met-Gln-Lys-OH (also: MGO-modified, site not given here) [MGO-modified Ac-MQK-OH], for which the “Cathepsin B inhibition test” value amounted to 69.2.

Consider H-Met-Thr-Arg-OH (also: MGO-modified, site not given here) [MGO-modified H-MTR-OH], for which the “Cathepsin B inhibition test” value was 104.

For the molecule H-Met-Gln-Lys-OH (also: MGO-modified, site not given here) [MGO-modified H-MQK-OH], the “Cathepsin B inhibition test” value stood at 99.5.

Ac-Cys-Asp-Arg-OH [Ac-CDR-OH]: the “Cathepsin B inhibition test” value was found to be 121.

With H-Cys-Asp-Arg-OH [H-CDR-OH], the “Cathepsin B inhibition test” value is 165.

As for {TNBS}-Phe-Ala-Lys-pNA (also: MGO-modified, site not given here) [MGO-modified TNBS-FAK-pNA], the “Cathepsin B inhibition test” value was found to be 122.

Turning to B1, the “Cathepsin B inhibition test” value worked out at 99.3.

As for H-IFVTMLR-OH (also: MGO-modified, site not given here) [MGO-modified H-IFVTMLR-OH], the “Cathepsin B inhibition test” value was 78.7.

The target of a further assay is T1, Cathepsin B from bovine spleen. As to the kind of experiment: cell-based or functional assay. This is another data set of the same source.
For Ac-Leu-Ile-Arg-NH2 [Ac-LIR-NH2], the “Cathepsin B inhibition test” value came to 65.4.

On to Ac-Leu-Ile-Arg-OH (also: MGO-modified, site not given here) [MGO-modified Ac-LIR-OH], for which the “Cathepsin B inhibition test” value is 0.07.

Take Ac-Leu-Ile-Arg-NH2 (also: MGO-modified, site not given here) [MGO-modified Ac-LIR-NH2]: the “Cathepsin B inhibition test” value worked out at 72.6.

On to Ac-Leu-Ile-Arg-OH [Ac-LIR-OH], for which the “Cathepsin B inhibition test” value was found to be 128.

For Ac-Leu-Leu-Lys-NH2 (also: MGO-modified, site not given here) [MGO-modified Ac-LLK-NH2], the “Cathepsin B inhibition test” value stood at 137.

With Ac-Leu-Leu-Lys-NH2 [Ac-LLK-NH2], the “Cathepsin B inhibition test” value was found to be 159.

Regarding Ac-Leu-Leu-Lys-OH [Ac-LLK-OH], the “Cathepsin B inhibition test” value came out at 142.

On to Ac-Leu-Val-Lys-OH [Ac-LVK-OH], for which the “Cathepsin B inhibition test” value stood at 144.

Ac-Leu-Leu-Lys-OH (also: MGO-modified, site not given here) [MGO-modified Ac-LLK-OH]: the “Cathepsin B inhibition test” value stood at 148.

In the case of Ac-Leu-Val-Lys-NH2 (also: MGO-modified, site not given here) [MGO-modified Ac-LVK-NH2], the “Cathepsin B inhibition test” value came out at 80.

Consider Ac-Leu-Val-Lys-NH2 [Ac-LVK-NH2], for which the “Cathepsin B inhibition test” value came to 92.7.

In the case of Ac-Leu-Val-Lys-OH (also: MGO-modified, site not given here) [MGO-modified Ac-LVK-OH], the “Cathepsin B inhibition test” value was determined as 80.8.

For a further assay the target is unchanged. As to the kind of experiment: cell-based or functional assay. This is another data set of the same source.
For H-QNGNR-OH [H-QNGNR-OH], the “Cathepsin B inhibition test” value came to 74.4.

Regarding H-QNDNR-OH [H-QNDNR-OH], the “Cathepsin B inhibition test” value was found to be 162.

Ac-QNDNK-OH [Ac-QNDNK-OH]: the “Cathepsin B inhibition test” value was determined as 167.

In the case of Ac-QNDNR-OH [Ac-QNDNR-OH], the “Cathepsin B inhibition test” value came to 162.

Consider H-QNDNK-OH [H-QNDNK-OH], for which the “Cathepsin B inhibition test” value stood at 104.

Turning to Ac-QNGNR-OH [Ac-QNGNR-OH], the “Cathepsin B inhibition test” value came to 101.

H-QNGNR-OH (also: MGO-modified, site not given here) [MGO-modified H-QNGNR-OH]: the “Cathepsin B inhibition test” value was determined as 85.

Take H-QNGNK-OH (also: MGO-modified, site not given here) [MGO-modified H-QNGNK-OH]: the “Cathepsin B inhibition test” value stood at 119.

As to H-QNDNK-OH (also: MGO-modified, site not given here) [MGO-modified H-QNDNK-OH], the “Cathepsin B inhibition test” value amounted to 68.4.

Take Ac-QNDNR-OH (also: MGO-modified, site not given here) [MGO-modified Ac-QNDNR-OH]: the “Cathepsin B inhibition test” value turned out to be 132.

With Ac-QNGNK-OH [Ac-QNGNK-OH], the “Cathepsin B inhibition test” value was found to be 187.

With Ac-QNGNK-OH (also: MGO-modified, site not given here) [MGO-modified Ac-QNGNK-OH], the “Cathepsin B inhibition test” value turned out to be 89.2.

As to Ac-QNDNK-OH (also: MGO-modified, site not given here) [MGO-modified Ac-QNDNK-OH], the “Cathepsin B inhibition test” value was determined as 122.

Consider Ac-QNGNR-OH (also: MGO-modified, site not given here) [MGO-modified Ac-QNGNR-OH], for which the “Cathepsin B inhibition test” value worked out at 88.7.

As to H-QNGNK-OH [H-QNGNK-OH], the “Cathepsin B inhibition test” value worked out at 171.

A further assay shares this target. As to the kind of experiment: cell-based or functional assay. The source holds these as a separate data set.
As for Ac-NQKN-OH [Ac-NQKN-OH], the “Cathepsin B inhibition test” value was 282.

Turning to Ac-NQKN-OH (also: MGO-modified, site not given here) [MGO-modified Ac-NQKN-OH], the “Cathepsin B inhibition test” value amounted to 102.

Ac-NQKNNN-OH (also: MGO-modified, site not given here) [MGO-modified Ac-NQKNNN-OH]: the “Cathepsin B inhibition test” value amounted to 87.5.

In the case of Ac-NQKNNN-OH [Ac-NQKNNN-OH], the “Cathepsin B inhibition test” value is 147.

Ac-NQKNNNQN-OH (also: MGO-modified, site not given here) [MGO-modified Ac-NQKNNNQN-OH]: the “Cathepsin B inhibition test” value is 171.

Consider Ac-NQKNNNQN-OH [Ac-NQKNNNQN-OH], for which the “Cathepsin B inhibition test” value turned out to be 290.
